From paper PMC11116813

Experiments:
[1] = biological target: Chp2 (Schizosaccharomyces pombe) (UniProt O42934); details: cited from earlier work
[2] = biological target: full-length human HP1α WT (hHP1α), recombinant (human) (UniProt P45973); assay: ITC; iTC200, full-length HP1α dimer in the cell (60 μM for hINCENP, 80 μM for hSgo1), 600 μM hINCENP or 800 μM hSgo1 fragment in the syringe, 25°C, 20 mM NaPO4 pH 7.0, 150 mM NaCl, 1 mM DTT (Fig. 6A, Fig. S5A); one-site model
Chain of full-length human HP1α WT (hHP1α), recombinant (human) (P45973 whole entry, the tested form may be a part): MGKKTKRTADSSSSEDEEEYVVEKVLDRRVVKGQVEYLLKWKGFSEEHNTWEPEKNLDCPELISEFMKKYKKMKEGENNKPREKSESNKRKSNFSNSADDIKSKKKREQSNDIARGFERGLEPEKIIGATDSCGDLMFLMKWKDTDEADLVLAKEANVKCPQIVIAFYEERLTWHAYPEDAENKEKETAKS

Chain of Mit1 (Q9P793 whole entry): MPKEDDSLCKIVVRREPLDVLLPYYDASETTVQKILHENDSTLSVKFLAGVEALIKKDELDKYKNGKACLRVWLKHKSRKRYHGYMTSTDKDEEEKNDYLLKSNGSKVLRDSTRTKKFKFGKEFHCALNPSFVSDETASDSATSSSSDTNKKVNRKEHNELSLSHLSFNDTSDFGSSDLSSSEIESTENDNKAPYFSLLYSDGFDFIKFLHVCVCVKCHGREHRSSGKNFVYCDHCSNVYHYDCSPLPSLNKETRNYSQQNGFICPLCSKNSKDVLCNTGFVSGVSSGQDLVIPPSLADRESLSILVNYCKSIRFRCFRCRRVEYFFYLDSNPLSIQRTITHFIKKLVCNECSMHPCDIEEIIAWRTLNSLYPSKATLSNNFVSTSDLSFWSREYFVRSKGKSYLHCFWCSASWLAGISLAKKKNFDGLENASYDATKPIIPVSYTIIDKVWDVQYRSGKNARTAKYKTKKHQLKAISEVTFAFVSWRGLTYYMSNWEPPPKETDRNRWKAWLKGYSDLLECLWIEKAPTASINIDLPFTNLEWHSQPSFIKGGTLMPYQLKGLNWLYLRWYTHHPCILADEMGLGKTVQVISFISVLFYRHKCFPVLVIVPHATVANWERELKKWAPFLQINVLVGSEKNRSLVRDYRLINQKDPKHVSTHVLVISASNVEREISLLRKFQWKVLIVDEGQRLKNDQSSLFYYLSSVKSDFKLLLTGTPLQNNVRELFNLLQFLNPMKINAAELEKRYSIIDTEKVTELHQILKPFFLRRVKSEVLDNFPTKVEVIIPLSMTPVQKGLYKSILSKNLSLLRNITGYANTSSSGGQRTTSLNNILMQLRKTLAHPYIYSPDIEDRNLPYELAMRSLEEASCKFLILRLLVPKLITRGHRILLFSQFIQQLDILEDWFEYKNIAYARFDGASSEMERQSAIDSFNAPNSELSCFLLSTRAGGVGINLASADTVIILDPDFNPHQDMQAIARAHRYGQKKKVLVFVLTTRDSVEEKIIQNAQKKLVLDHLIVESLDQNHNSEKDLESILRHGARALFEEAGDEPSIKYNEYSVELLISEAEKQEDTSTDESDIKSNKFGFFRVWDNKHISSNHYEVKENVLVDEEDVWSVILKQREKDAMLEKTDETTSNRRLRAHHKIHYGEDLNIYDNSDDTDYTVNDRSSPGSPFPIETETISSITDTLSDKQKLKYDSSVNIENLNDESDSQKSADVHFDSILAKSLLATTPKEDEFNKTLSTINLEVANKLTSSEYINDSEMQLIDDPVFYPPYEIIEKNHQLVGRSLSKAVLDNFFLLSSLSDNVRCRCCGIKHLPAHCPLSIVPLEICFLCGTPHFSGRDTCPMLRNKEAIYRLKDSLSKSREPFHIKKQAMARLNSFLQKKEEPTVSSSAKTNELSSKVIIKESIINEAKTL
Chain of Chp2 (Schizosaccharomyces pombe) (O42934 whole entry, the tested form may be a part): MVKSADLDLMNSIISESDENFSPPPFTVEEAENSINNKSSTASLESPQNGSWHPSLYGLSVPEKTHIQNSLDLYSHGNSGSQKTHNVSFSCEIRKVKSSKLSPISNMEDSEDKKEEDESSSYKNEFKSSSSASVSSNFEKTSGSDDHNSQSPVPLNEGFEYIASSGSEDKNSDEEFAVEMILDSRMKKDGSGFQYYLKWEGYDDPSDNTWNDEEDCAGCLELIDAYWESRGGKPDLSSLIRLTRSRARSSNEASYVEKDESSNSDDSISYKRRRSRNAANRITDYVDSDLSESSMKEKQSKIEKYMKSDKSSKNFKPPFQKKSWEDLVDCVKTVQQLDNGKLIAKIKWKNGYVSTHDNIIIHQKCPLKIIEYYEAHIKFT

Kd [2]	Substance	Kd [1]
	Mit1 (from UniProt Q9P793)	2.6 nM
810 nM	human INCENP fragment (121-210) E180A (from UniProt Q9NQS7 121-210) (domain or fragment)	
60 nM	human INCENP fragment (121-210) WT used in Fig. 6A (from UniProt Q9NQS7 121-210) (domain or fragment)	
